Results reported in PMC9638935 (Nucleic Acids Research, 2022).

Assays:
[1] = molecular target: T1, Cbp80 (tag not named for Figures 4C-D and 5D) (S. cerevisiae, UniProt P34160 1-861); assay: co-IP
T1 sequence (looked up): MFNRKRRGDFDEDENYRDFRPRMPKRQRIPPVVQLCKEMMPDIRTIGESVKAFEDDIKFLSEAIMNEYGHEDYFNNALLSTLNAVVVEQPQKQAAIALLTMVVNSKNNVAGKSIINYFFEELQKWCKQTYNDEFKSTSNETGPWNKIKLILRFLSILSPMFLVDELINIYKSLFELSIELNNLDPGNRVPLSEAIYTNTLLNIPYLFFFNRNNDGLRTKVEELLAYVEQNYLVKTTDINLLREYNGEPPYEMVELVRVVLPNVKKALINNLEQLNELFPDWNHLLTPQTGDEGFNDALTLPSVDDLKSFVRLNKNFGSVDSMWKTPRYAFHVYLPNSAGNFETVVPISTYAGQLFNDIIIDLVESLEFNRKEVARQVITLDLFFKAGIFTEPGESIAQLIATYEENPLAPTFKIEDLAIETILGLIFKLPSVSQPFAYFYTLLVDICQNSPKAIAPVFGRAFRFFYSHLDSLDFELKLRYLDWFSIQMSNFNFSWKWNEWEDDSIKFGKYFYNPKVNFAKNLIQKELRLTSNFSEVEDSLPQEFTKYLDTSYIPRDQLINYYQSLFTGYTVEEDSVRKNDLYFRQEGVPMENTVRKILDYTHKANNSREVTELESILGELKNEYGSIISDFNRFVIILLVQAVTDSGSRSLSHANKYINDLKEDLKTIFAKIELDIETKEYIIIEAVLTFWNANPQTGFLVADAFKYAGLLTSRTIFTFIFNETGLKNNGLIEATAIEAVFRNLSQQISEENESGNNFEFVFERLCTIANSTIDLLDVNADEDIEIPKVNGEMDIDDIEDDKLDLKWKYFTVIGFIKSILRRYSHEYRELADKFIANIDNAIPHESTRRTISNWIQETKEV

[2] = molecular target: T2, Mex67 (S. cerevisiae, UniProt Q99257 1-599); assay: co-IP
T2 sequence (looked up): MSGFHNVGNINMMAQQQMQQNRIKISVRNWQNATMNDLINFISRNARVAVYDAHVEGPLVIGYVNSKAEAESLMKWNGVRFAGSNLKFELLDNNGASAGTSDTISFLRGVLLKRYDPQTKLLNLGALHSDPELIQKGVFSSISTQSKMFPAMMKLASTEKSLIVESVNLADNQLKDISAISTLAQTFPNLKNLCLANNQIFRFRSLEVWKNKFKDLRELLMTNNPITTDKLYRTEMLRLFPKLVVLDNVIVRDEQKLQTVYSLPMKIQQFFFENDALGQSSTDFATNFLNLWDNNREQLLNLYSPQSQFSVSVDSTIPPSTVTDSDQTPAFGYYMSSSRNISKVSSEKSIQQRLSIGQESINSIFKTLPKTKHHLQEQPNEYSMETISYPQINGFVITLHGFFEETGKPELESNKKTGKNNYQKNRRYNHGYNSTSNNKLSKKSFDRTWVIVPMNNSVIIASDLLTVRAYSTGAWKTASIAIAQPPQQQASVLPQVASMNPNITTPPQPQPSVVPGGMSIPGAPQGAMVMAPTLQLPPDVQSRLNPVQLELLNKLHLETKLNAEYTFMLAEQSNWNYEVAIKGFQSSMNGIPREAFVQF

- co-IP signal in cet1-2 relative to wild type [1]: ~60%
- drop of the co-IP signal in cet1-2 and rat1-1 cells relative to wild type [2]: ~20%
B1: Npl3 (natural protein, S. cerevisiae, UniProt Q01560 1-414, looked up)
chain: MSEAQETHVEQLPESVVDAPVEEQHQEPPQAPDAPQEPQVPQESAPQESAPQEPPAPQEQNDVPPPSNAPIYEGEESHSVQDYQEAHQHHQPPEPQPYYPPPPPGEHMHGRPPMHHRQEGELSNTRLFVRPFPLDVQESELNEIFGPFGPMKEVKILNGFAFVEFEEAESAAKAIEEVHGKSFANQPLEVVYSKLPAKRYRITMKNLPEGCSWQDLKDLARENSLETTFSSVNTRDFDGTGALEFPSEEILVEALERLNNIEFRGSVITVERDDNPPPIRRSNRGGFRGRGGFRGGFRGGFRGGFSRGGFGGPRGGFGGPRGGYGGYSRGGYGGYSRGGYGGSRGGYDSPRGGYDSPRGGYSRGGYGGPRNDYGPPRGSYGGSRGGYDGPRGDYGPPRDAYRTRDAPRERSPTR
